Source: patent US20260069689A1

Biological target: T1, human CD20 on Jurkat cells (human) (UniProt P11836)
T1 sequence: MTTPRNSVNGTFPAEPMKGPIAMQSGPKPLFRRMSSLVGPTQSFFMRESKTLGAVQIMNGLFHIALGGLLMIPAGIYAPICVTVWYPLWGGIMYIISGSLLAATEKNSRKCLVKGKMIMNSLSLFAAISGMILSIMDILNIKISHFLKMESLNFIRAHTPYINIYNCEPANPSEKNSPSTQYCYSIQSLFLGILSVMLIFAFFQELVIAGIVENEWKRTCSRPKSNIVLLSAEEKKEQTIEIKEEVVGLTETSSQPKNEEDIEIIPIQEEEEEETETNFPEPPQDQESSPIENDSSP
Assay: cell-based or functional assay

Work on casirivimab + imdevimab yielded a Max ADCP (%), MDM donor #1, Jurkat/hCD20 cells of 15.5%, a Max ADCP (%), MDM donor #2, Jurkat/hCD20 cells of 15.1% and a Max cytotoxicity (%), ADCC, NK donor #1, Jurkat/hCD20 cells of 0.8%. For the same substance, the Max cytotoxicity (%), ADCC, NK donor #2, Jurkat/hCD20 cells was 4.8% and the Max cytotoxicity (%), ADCC, NK donor #3, Jurkat/hCD20 cells was 0%.
